Square brackets hold non-standard residues; d marks the D form. Ends that are not written are not given here. 1Nal = N[C@@H](Cc1cccc2ccccc12)C(=O)O; 2Nal = N[C@@H](Cc1ccc2ccccc2c1)C(=O)O; Nle = CCCC[C@H](N)C(=O)O; Abu = CC[C@H](N)C(=O)O
B1: Peptide 25 (synthetic peptide of clone 25) (peptide)
peptide: AESTYHHLSLGYMYTLN-NH2
notes: also called clone 25 peptide; analogs 3 and 4
B2: Analog 60 (peptide)
peptide: AESTYHHLSLGYMYT[dL]N-NH2
modifications: N-terminus assumed
SMILES: CSCC[C@H](NC(=O)[C@H](Cc1ccc(O)cc1)NC(=O)CNC(=O)[C@H](CC(C)C)NC(=O)[C@H](CO)NC(=O)[C@H](CC(C)C)NC(=O)[C@H](Cc1c[nH]cn1)NC(=O)[C@H](Cc1c[nH]cn1)NC(=O)[C@H](Cc1ccc(O)cc1)NC(=O)[C@@H](NC(=O)[C@H](CO)NC(=O)[C@H](CCC(=O)O)NC(=O)[C@H](C)N)[C@@H](C)O)C(=O)N[C@@H](Cc1ccc(O)cc1)C(=O)N[C@H](C(=O)N[C@H](CC(C)C)C(=O)N[C@@H](CC(N)=O)C(N)=O)[C@@H](C)O
B3: Analog 45 (peptide)
peptide: AESTYHHLSLGY[Abu]YTLN-NH2
modifications: N-terminus assumed
SMILES: CC[C@H](NC(=O)[C@H](Cc1ccc(O)cc1)NC(=O)CNC(=O)[C@H](CC(C)C)NC(=O)[C@H](CO)NC(=O)[C@H](CC(C)C)NC(=O)[C@H](Cc1c[nH]cn1)NC(=O)[C@H](Cc1c[nH]cn1)NC(=O)[C@H](Cc1ccc(O)cc1)NC(=O)[C@@H](NC(=O)[C@H](CO)NC(=O)[C@H](CCC(=O)O)NC(=O)[C@H](C)N)[C@@H](C)O)C(=O)N[C@@H](Cc1ccc(O)cc1)C(=O)N[C@H](C(=O)N[C@@H](CC(C)C)C(=O)N[C@@H](CC(N)=O)C(N)=O)[C@@H](C)O
notes: T0004 prints Y there, as in peptide 25; Y is used
B4: Analog 44 (peptide)
peptide: AESTYHHLSLGY[Nle]YTLN-NH2
modifications: N-terminus assumed
SMILES: CCCC[C@H](NC(=O)[C@H](Cc1ccc(O)cc1)NC(=O)CNC(=O)[C@H](CC(C)C)NC(=O)[C@H](CO)NC(=O)[C@H](CC(C)C)NC(=O)[C@H](Cc1c[nH]cn1)NC(=O)[C@H](Cc1c[nH]cn1)NC(=O)[C@H](Cc1ccc(O)cc1)NC(=O)[C@@H](NC(=O)[C@H](CO)NC(=O)[C@H](CCC(=O)O)NC(=O)[C@H](C)N)[C@@H](C)O)C(=O)N[C@@H](Cc1ccc(O)cc1)C(=O)N[C@H](C(=O)N[C@@H](CC(C)C)C(=O)N[C@@H](CC(N)=O)C(N)=O)[C@@H](C)O
B5: Analog 55 (peptide)
peptide: AESTYHHLS[dL]GYMYTLN-NH2
modifications: N-terminus assumed
SMILES: CSCC[C@H](NC(=O)[C@H](Cc1ccc(O)cc1)NC(=O)CNC(=O)[C@@H](CC(C)C)NC(=O)[C@H](CO)NC(=O)[C@H](CC(C)C)NC(=O)[C@H](Cc1c[nH]cn1)NC(=O)[C@H](Cc1c[nH]cn1)NC(=O)[C@H](Cc1ccc(O)cc1)NC(=O)[C@@H](NC(=O)[C@H](CO)NC(=O)[C@H](CCC(=O)O)NC(=O)[C@H](C)N)[C@@H](C)O)C(=O)N[C@@H](Cc1ccc(O)cc1)C(=O)N[C@H](C(=O)N[C@@H](CC(C)C)C(=O)N[C@@H](CC(N)=O)C(N)=O)[C@@H](C)O
B6: Analog 35 (peptide)
peptide: AEST[1Nal]HHLSLGYMYTLN-NH2
modifications: N-terminus assumed
SMILES: CSCC[C@H](NC(=O)[C@H](Cc1ccc(O)cc1)NC(=O)CNC(=O)[C@H](CC(C)C)NC(=O)[C@H](CO)NC(=O)[C@H](CC(C)C)NC(=O)[C@H](Cc1c[nH]cn1)NC(=O)[C@H](Cc1c[nH]cn1)NC(=O)[C@H](Cc1cccc2ccccc12)NC(=O)[C@@H](NC(=O)[C@H](CO)NC(=O)[C@H](CCC(=O)O)NC(=O)[C@H](C)N)[C@@H](C)O)C(=O)N[C@@H](Cc1ccc(O)cc1)C(=O)N[C@H](C(=O)N[C@@H](CC(C)C)C(=O)N[C@@H](CC(N)=O)C(N)=O)[C@@H](C)O
B7: Analog 54 (peptide)
peptide: AESTYHHL[dS]LGYMYTLN-NH2
modifications: N-terminus assumed
SMILES: CSCC[C@H](NC(=O)[C@H](Cc1ccc(O)cc1)NC(=O)CNC(=O)[C@H](CC(C)C)NC(=O)[C@@H](CO)NC(=O)[C@H](CC(C)C)NC(=O)[C@H](Cc1c[nH]cn1)NC(=O)[C@H](Cc1c[nH]cn1)NC(=O)[C@H](Cc1ccc(O)cc1)NC(=O)[C@@H](NC(=O)[C@H](CO)NC(=O)[C@H](CCC(=O)O)NC(=O)[C@H](C)N)[C@@H](C)O)C(=O)N[C@@H](Cc1ccc(O)cc1)C(=O)N[C@H](C(=O)N[C@@H](CC(C)C)C(=O)N[C@@H](CC(N)=O)C(N)=O)[C@@H](C)O
B8: Analog 36 (peptide)
peptide: AEST[2Nal]HHLSLGYMYTLN-NH2
modifications: N-terminus assumed
SMILES: CSCC[C@H](NC(=O)[C@H](Cc1ccc(O)cc1)NC(=O)CNC(=O)[C@H](CC(C)C)NC(=O)[C@H](CO)NC(=O)[C@H](CC(C)C)NC(=O)[C@H](Cc1c[nH]cn1)NC(=O)[C@H](Cc1c[nH]cn1)NC(=O)[C@H](Cc1ccc2ccccc2c1)NC(=O)[C@@H](NC(=O)[C@H](CO)NC(=O)[C@H](CCC(=O)O)NC(=O)[C@H](C)N)[C@@H](C)O)C(=O)N[C@@H](Cc1ccc(O)cc1)C(=O)N[C@H](C(=O)N[C@@H](CC(C)C)C(=O)N[C@@H](CC(N)=O)C(N)=O)[C@@H](C)O
B9: Analog 46 (peptide)
peptide: [dA]ESTYHHLSLGYMYTLN-NH2
modifications: N-terminus assumed
SMILES: CSCC[C@H](NC(=O)[C@H](Cc1ccc(O)cc1)NC(=O)CNC(=O)[C@H](CC(C)C)NC(=O)[C@H](CO)NC(=O)[C@H](CC(C)C)NC(=O)[C@H](Cc1c[nH]cn1)NC(=O)[C@H](Cc1c[nH]cn1)NC(=O)[C@H](Cc1ccc(O)cc1)NC(=O)[C@@H](NC(=O)[C@H](CO)NC(=O)[C@H](CCC(=O)O)NC(=O)[C@@H](C)N)[C@@H](C)O)C(=O)N[C@@H](Cc1ccc(O)cc1)C(=O)N[C@H](C(=O)N[C@@H](CC(C)C)C(=O)N[C@@H](CC(N)=O)C(N)=O)[C@@H](C)O
B10: Analog 47 (peptide)
peptide: A[dE]STYHHLSLGYMYTLN-NH2
modifications: N-terminus assumed
SMILES: CSCC[C@H](NC(=O)[C@H](Cc1ccc(O)cc1)NC(=O)CNC(=O)[C@H](CC(C)C)NC(=O)[C@H](CO)NC(=O)[C@H](CC(C)C)NC(=O)[C@H](Cc1c[nH]cn1)NC(=O)[C@H](Cc1c[nH]cn1)NC(=O)[C@H](Cc1ccc(O)cc1)NC(=O)[C@@H](NC(=O)[C@H](CO)NC(=O)[C@@H](CCC(=O)O)NC(=O)[C@H](C)N)[C@@H](C)O)C(=O)N[C@@H](Cc1ccc(O)cc1)C(=O)N[C@H](C(=O)N[C@@H](CC(C)C)C(=O)N[C@@H](CC(N)=O)C(N)=O)[C@@H](C)O
B11: Analog 61 (peptide)
peptide: AESTYHHLSLGYMYTL[dN]-NH2
modifications: N-terminus assumed
SMILES: CSCC[C@H](NC(=O)[C@H](Cc1ccc(O)cc1)NC(=O)CNC(=O)[C@H](CC(C)C)NC(=O)[C@H](CO)NC(=O)[C@H](CC(C)C)NC(=O)[C@H](Cc1c[nH]cn1)NC(=O)[C@H](Cc1c[nH]cn1)NC(=O)[C@H](Cc1ccc(O)cc1)NC(=O)[C@@H](NC(=O)[C@H](CO)NC(=O)[C@H](CCC(=O)O)NC(=O)[C@H](C)N)[C@@H](C)O)C(=O)N[C@@H](Cc1ccc(O)cc1)C(=O)N[C@H](C(=O)N[C@@H](CC(C)C)C(=O)N[C@H](CC(N)=O)C(N)=O)[C@@H](C)O
B12: Analog 89 (peptide)
peptide: AEFFKLGP[dN]GYVYLHSA-NH2
modifications: N-terminus assumed
SMILES: CC(C)C[C@H](NC(=O)[C@H](CCCCN)NC(=O)[C@H](Cc1ccccc1)NC(=O)[C@H](Cc1ccccc1)NC(=O)[C@H](CCC(=O)O)NC(=O)[C@H](C)N)C(=O)NCC(=O)N1CCC[C@H]1C(=O)N[C@H](CC(N)=O)C(=O)NCC(=O)N[C@@H](Cc1ccc(O)cc1)C(=O)N[C@H](C(=O)N[C@@H](Cc1ccc(O)cc1)C(=O)N[C@@H](CC(C)C)C(=O)N[C@@H](Cc1c[nH]cn1)C(=O)N[C@@H](CO)C(=O)N[C@@H](C)C(N)=O)C(C)C
B13: Analog 83 (peptide)
peptide: A[dE]FFKLGPNGYVYLHSA-NH2
modifications: N-terminus assumed
SMILES: CC(C)C[C@H](NC(=O)[C@H](CCCCN)NC(=O)[C@H](Cc1ccccc1)NC(=O)[C@H](Cc1ccccc1)NC(=O)[C@@H](CCC(=O)O)NC(=O)[C@H](C)N)C(=O)NCC(=O)N1CCC[C@H]1C(=O)N[C@@H](CC(N)=O)C(=O)NCC(=O)N[C@@H](Cc1ccc(O)cc1)C(=O)N[C@H](C(=O)N[C@@H](Cc1ccc(O)cc1)C(=O)N[C@@H](CC(C)C)C(=O)N[C@@H](Cc1c[nH]cn1)C(=O)N[C@@H](CO)C(=O)N[C@@H](C)C(N)=O)C(C)C

Each binder was assayed against T1, Soluble recombinant human urokinase receptor (suPAR) (human, UniProt Q03405 23-299, limits assumed, biotinylated in the plate assays (sites not given)) (assay: competition with phage displaying peptide 25 for soluble uPAR).
T1 construct: Only called a soluble truncated form of the urokinase receptor; also called soluble uPAR; biotinylated suPAR
Experimental: (§1) The final anti-M13 conjugate dilution was 1:4000.
(§2) These concentrations were calculated based on the synthesis reactions.

T1 sequence (Q03405 23-299 limits assumed): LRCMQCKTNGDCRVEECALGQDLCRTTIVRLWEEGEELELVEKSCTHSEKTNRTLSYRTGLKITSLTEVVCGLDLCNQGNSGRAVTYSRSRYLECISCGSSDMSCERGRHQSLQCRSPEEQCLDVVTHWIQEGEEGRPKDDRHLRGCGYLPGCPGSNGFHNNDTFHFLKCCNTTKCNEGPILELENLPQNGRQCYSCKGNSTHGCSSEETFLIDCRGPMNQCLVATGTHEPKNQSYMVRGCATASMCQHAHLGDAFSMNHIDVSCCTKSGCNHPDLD

In order of rising “% Inhibition at 2.5 uM” value:
1. B2  22%
2. B3  31%
3. B11  32%
4. B10  35%
5. AESTFHHLSLGYMYTLN-NH2 [Analog 34]  38%
6. B9  41%
7. B1  45%
8. B5  56%
9. B8  61%
10. AESTYHHLSLGYVYTLN-NH2 [Analog 43]  63%
11. B6  70%
12. B7  73%

In order of rising “% Inhibition at 5 uM” value:
1. AESTFHHLSLGYMYTLN-NH2 [Analog 34]  47%
2. B11  55%
3. B9  57%
4. B1  59%
5. B3  59%
6. B10  61%
7. B2  75%
8. B8  78%
9. B5  80%
10. AESTYHHLSLGYVYTLN-NH2 [Analog 43]  82%
11. B7  86%
12. B4  91%
13. B6  94%

What follows are binders tested against T1, Soluble recombinant human urokinase … (assay: competition with phage displaying peptide 9 for soluble uPAR).
Experimental: as §1, §2

In order of falling “% Inhibition at 2.5 uM” value:
1. AEFFKLGPNGYVYLHSA-NH2 (also called analogs 62-64) [Peptide 9 (synthetic peptide of clone 9)]  59%
2. B13  44%
3. B12  15%

In order of rising “% Inhibition at 5 uM” value:
1. B12  13%
2. B13  59%
3. AEFFKLGPNGYVYLHSA-NH2 (also called analogs 62-64) [Peptide 9 (synthetic peptide of clone 9)]  71%

Reference: US20040265797A1 (CHIRON, published 2004)
